Substrate in the data set: OCc1ccccc1O[C@@H]1O[C@H](CO)[C@@H](O)[C@H](O)[C@H]1O
Description: efflux of injected substrate from oocytes, HPLC-MS. The format is cell-based, Chrysomela populi. Conditions: Xenopus oocytes expressing CpMRP vs water-injected control, modified Barth's medium pH 7.4, room temperature, oocyte volume assumed 1 µl.

What is called Km is the concentration of substrate that gives half-maximal velocity.

B1: CpMRP (Chrysomela populi) (protein)
chain: MDNGYQLKYDNPRDKANFISKLFFGWMIGLVRKATRTGLEVGDLYKTREADKSKKLADLLEKNWTKELKRAKLKGTKPSLSRALLKTFTMEYMGWGLLFFIQFVVLRSILPLILSYLISLFQESDMDDMVDRTNAMYICSGILITITAISIFFLHHTNKGLTVVGMKARIAVSSLIYRKITRLNQTSLGETAAGQVVNILSNDVNRFDLVVLSLHCLWTLPIQVALLFYLLWRQVQISCLAGILSMMIICIPGQGYVGKLTGVLRFRVAKKTDTRVKLMNEVISGIQVIKMYAWEKSFEKLIKLMRADEIKDLTSTSYLRGLLLSCVVFIERLTMFLTVTCYVLLGNVITADKVFSMAQFFNILQYGIAILYPMAVSYGAETLISIKRLQDFLLLEERKTPSIETAEDNGIQLSDVSASWTADTRTLRDITLNLPPGTLCAVVGPVGAGKSSLLQLLLGELPLSSGTMSLAGTISYSSQEPWLFQSSVRKNVLFGEPYQSSWYKQVVKVCALEKDFDQFPQRDQTIVGERGVSLSGGQRARINLARAIYRKTDVYLMDDPLSAVDTHVGRHLFDECIYRHLRGKTRILATHQLQYLKNADVIVVMNEGRIEAQGSFEELSDSELDFTKLLVSADETKGESKKLSLVEEPKIDYIKRLSVRSIMSTQSEFIEMMEYGDTEELGVDGNAHPFKDYCKAPRNVCLLVVVIISLILAQAVCSGADYWSSFWTRQEEIRHSTRARPVSDSSEVIQLVPLGNQTISLDGNKYTNENRDFSFDTFFDQVFLDNRIYKLLKTNYSMGVYGFLIIAAIVFTIGRSVLFCKLTMQASTNLHSDMFHTLLKAPMRFFDTNPSGRVLNRFSKDMGAVDEILPRTLLESIQIMLVMCGILVNIAVANPYMLVAMVVMGVCFYFLSKWYVTTASNVKHLEGFTKSPVFSHVNSTLNGITTIRAFRAEEVLCEEFDDQQDVHTSSWYLTLSCIASFGLWMDIVCLLFLACVTFSFVLMHSTSSVNGSLVGLAISQCLILTGMLQHGMRQTSEVINQLTSVERIRQYTKIDTEGPFETPIEKKPLKGWPNRGRLEFRNLVLRYVAEDDPVLRNLTFTVLPGEKVGIVGRTGAGKSSLISALFRLAPTSGSILIDGVDSKVLGLTDLRMKISIIPQEPVLFSATMRYNLDPFDEFDDRSLWDALEQVELKDAVESLDIMVTEGGNNFSLGQRQLICLARAILRNNNILVLDEATANVDQRTDSFIQKTIRRNFEDCTVLTIAHRLNTIMDSDKVLVMHFGEMVEYDHPHILLQLPEGHFHKMVLETGPAIYAQLKDVAEKAYHKNSRL
notes: cRNA expressed in Xenopus laevis oocytes
Consider B1, for which the Michaelis-Menten constant (Km) came out at 5.8 mM.

Source of the values: PMC3843118, “ABC transporter functions as a pacemaker for sequestration of plant glucosides in leaf beetles” (eLife, 2013).
